Experimental data: patent US11046988B2, “Process for the modification of a glycoprotein using a β-(1,4)-N-acetylgalactosaminyl transferase or a mutant thereof” (Synaffix B.V., priority 2014, dated 2021)

B1: TnGalNAcT: truncated Trichoplusia ni β-(1,4)-GalNAcT, amino acids 33-421 of SEQ ID NO: 4 (SEQ ID NO: 8) (protein)
chain: SPLRTYLYTPLYNATQPTLRNVERLAANWPKKIPSNYIEDSEEYSIKNISLSNHTTRASVVHPPSSITETASKLDKNMTIQDGAFAMISPTPLLITKLMDSIKSYVTTEDGVKKAEAVVTLPLCDSMPPDLGPITLNKTELELEWVEKKFPEVEWGGRYSPPNCTARHRVAIIVPYRDRQQHLAIFLNHMHPFLMKQQIEYGIFIVEQEGNKDFNRAKLMNVGFVESQKLVAEGWQCFVFHDIDLLPLDTRNLYSCPRQPRHMSASIDKLHFKLPYEDIFGGVSAMTLEQFTRVNGFSNKYWGWGGEDDDMSYRLKKINYHIARYKMSIARYAMLDHKKSTPNPKRYQLLSQTSKTFQKDGLSTLEYELVQVVQYHLYTHILVNIDERS
modifications: TnGalNAcT(33-421)

Test: Coupled glycosyltransferase assay (R&D Systems Glycosyltransferase Activity Kit, malachite green, 620 nm): transfer of F2-GalNAz to GlcNAc
Format: biochemical
Set-up: Data from the determination of the specific activity: unit not given here
Conditions: for Data from the determination of the specific activity: GlcNAc 20 mM, UDP-F2-GalNAz 500 μM, 20 min, room temperature, plate read at 620 nm; for specific activity: UDP-F2-GalNAz 500 μM to GlcNAc 20 mM, 5 mM MgCl2 and 5 mM MnCl2, pH 7.5, linear regression; for transferase activity compared with GalT(Y289L): transfer of F2-GalNAz from UDP-F2-GalNAz (18) to GlcNAc, FIG. 7 / FIG. 8
From the text: In brief, the glycosyltransferase kit determines the activity of a particular glycosyltransferase by means of a coupled assay that detects the release of liberated UDP upon transfer of the donor sugar (from the sugar-UDP nucleotide) to an acceptor sugar. In more detail, the UDP that is liberated upon transfer of sugar is hydrolyzed by a particular enzyme (CD39L3/rectonucleoside triphosphate diphosphohydrolase-3, also known as NTPDase-3) thereby generating UMP and one equivalent of phosphate (Pi). The latter phosphate in turn is detected by malachite green, which is also added to the mixture. A green color develops in proportion to the amount of inorganic phosphate released and the absorbance of the color at 620 nm is measured as a direct measure of the activity of the glycosyltransferase. In the present case, transfer of F2-GalNAz from the UDP-substrate to GlcNAc on the protein is accompanied by release of UDP, which is hydrolyzed by CD39L3 and the generated phosphate. Preferably, the derived or wild type β-(1,4)-GalNAcT enzyme used in the process according to the invention has at least 30%, 33%, 50%, 75%, 100%, 150%, 200%, or more preferably at least 300% of the UDP-F2-GalNAz transfer activity as compared to the UDP-F2-GalNAz transfer activity of the β-(1,4)-galactosyltransferase mutant enzyme Bos taurus GalT-Y289L (SEQ ID NO: 1), wherein the transfer activity is assessed using the R&D Systems Glycosyltransferase Activity Kit and applying the conditions as indicated in detail in Example 18 and using equal amounts of the enzyme to be tested and β-(1,4)-galactosyltransferase mutant enzyme Bos taurus GalT-Y289L (SEQ ID NO: 1).
Specific activity of enzymes was determined by a coupled glycosyltransferase procedure as described by Wu et al. in Glycobiology 2010, 21, 723-733, incorporated by reference, and commercially available as a kit from R&D system.
In short, a glycosyltransferase reaction was carried out in 50 μL of reaction buffer (25 mM Tris, 150 mM NaCl, 5 mM MgCl2 and 5 mM MnCl2, pH 7.5) in a 96-well plate at room temperature for 20 min. To determine the kinetic parameters of a glycosyltransferase, multiple reactions with varying amounts of the enzyme were carried out simultaneously (0.01, 0.02, 0.04, 0.06, 0.08, 0.10 and 0.12 μg of enzyme) in the presence of fixed amounts of all other components (GlcNAc: 20 mM, UDP-F2-GalNAz: 500 μM), including the coupling phosphatase 1 (ENTPD3/CD39L3) (2.5 μL of 20 ng/μL solution). A well containing all components except for the enzyme served as a blank control. The reactions were initiated by adding the substrates and phosphatase to the enzyme and terminated by the addition of 30 μL of Malachite reagent A and 100 μL of water to each well. The color was developed by the addition of 30 μL of Malachite reagent B to each well followed by gentle mixing and incubation at room temperature for 20 min. Following color development, the plate was read at 620 nm with a multi-well plate reader. A phosphate standard curve was also performed to determine the conversion factor between the absorbance and the inorganic phosphate contents. Preparation of UDP-F2-GalNAz is described in Example 13.
The specific activity of the GalNAcTs described herein were compared to GalT(Y289L), an enzyme known to transfer UDP-GalNAz as previously disclosed in WO 2007/095506 and WO 2008/029281 (both Invitrogen Corporation).
A graph depicting the conversion (in pmol/min/m) plotted against the amount of enzyme is shown in FIG. 7 (for Table 1) and FIG. 8 (for Table 2). From these plots specific activities were calculated by linear regression. […]

Row | Molecule | Data from the determination of the specific activity (0.01 μg enzyme) | Data from the determination of the specific activity (0.02 μg enzyme) | Data from the determination of the specific activity (0.04 μg enzyme) | Data from the determination of the specific activity (0.06 μg enzyme) | Data from the determination of the specific activity (0.08 μg enzyme) | Data from the determination of the specific activity (0.1 μg enzyme) | Data from the determination of the specific activity (0.12 μg enzyme) | specific activity | activity for transfer of an azido-GalNAc derivative, times higher than GalT(Y289L) (relative to GalT(Y289L), FIG. 7) | transferase activity compared with GalT(Y289L)
1 | CeGalNAcT: truncated Caenorhabditis elegans β-(1,4)-GalNAcT, amino acids 30-383 of SEQ ID NO: 2 (SEQ ID NO: 6) | 0.031 | 0.066 | 0.14 | 0.162 | 0.265 | 0.301 | 0.348 | 426 pmol/min/µg | 10 times | significantly higher
2 | B1 | 0 | 0.007 | 0.025 | 0.051 | 0.073 | 0.083 | 0.102 | 140 pmol/min/µg |  | significantly higher
